Measured values as given in patent US20150299268A1 (UNIVERSITY OF MARYLAND BALTIMORE, published 2015).

Legend:
Assay in all cases: capture ELISA
[1] = target: T1, BaL-gp120 (HIV-1 BaL)
T1 construct: domain: gp120; also called monomeric gp120; monomeric BaL gp120

[2] = target: T2, FLSC (HIV-1, UniProt P01730 26-208)
T2 construct: not shown: linker of FLSC not described

[3] = target: T3, BaL-gp120-E31A (HIV-1 BaL)
T3 construct: domain: gp120

[4] = target: T4, BaL-gp120-E32A (HIV-1 BaL)
T4 construct: domain: gp120

[5] = target: T5, BaL-gp120-K33A (HIV-1 BaL)
T5 construct: domain: gp120

[6] = target: T6, BaL-gp120-W35A (HIV-1 BaL)
T6 construct: domain: gp120

[7] = target: T7, BaL-gp120-Y39A (HIV-1 BaL)
T7 construct: domain: gp120

[8] = target: T8, BaL-gp120-Y40A (HIV-1 BaL)
T8 construct: domain: gp120

[9] = target: T9, BaL-gp120-V44A (HIV-1 BaL)
T9 construct: domain: gp120

[10] = target: T10, BaL-gp120-W45A (HIV-1 BaL)
T10 construct: domain: gp120

[11] = target: T11, BaL-gp120-K46A (HIV-1 BaL)
T11 construct: domain: gp120

[12] = target: T12, BaL-gp120-E47A (HIV-1 BaL)
T12 construct: domain: gp120

[13] = target: T13, BaL-gp120-F53A (HIV-1 BaL)
T13 construct: domain: gp120

[14] = target: T14, BaL-gp120-D57A (HIV-1 BaL)
T14 construct: domain: gp120

[15] = target: T15, BaL-gp120-D57AD62A (HIV-1 BaL)
T15 construct: domain: gp120

[16] = target: T16, BaL-gp120-D57AD78A (HIV-1 BaL)
T16 construct: domain: gp120

[17] = target: T17, BaL-gp120-R58AK59A (HIV-1 BaL)
T17 construct: domain: gp120

[18] = target: T18, BaL-gp120-Y61A (HIV-1 BaL)
T18 construct: domain: gp120

[19] = target: T19, BaL-gp120-D62A (HIV-1 BaL)
T19 construct: domain: gp120

[20] = target: T20, BaL-gp120-V68A (HIV-1 BaL)
T20 construct: domain: gp120

[21] = target: T21, BaL-gp120-V75A (HIV-1 BaL)
T21 construct: domain: gp120

[22] = target: T22, BaL-gp120-P76A (HIV-1 BaL)
T22 construct: domain: gp120

[23] = target: T23, BaL-gp120-D78A (HIV-1 BaL)
T23 construct: domain: gp120

[24] = target: T24, BaL-gp120-H105A (HIV-1 BaL)
T24 construct: domain: gp120

[25] = target: T25, BaL-gp120-E106AD107A (HIV-1 BaL)
T25 construct: domain: gp120

[26] = target: T26, BaL-gp120-D368R (HIV-1 BaL)
T26 construct: domain: gp120

[27] = target: T27, BaL-gp120-I420R (HIV-1 BaL)
T27 construct: domain: gp120; also called -1420R

[28] = target: T28, BaL-gp120-T455A (HIV-1 BaL)
T28 construct: domain: gp120

[29] = target: T29, BaL-gp120-R476A (HIV-1 BaL)
T29 construct: domain: gp120

[30] = target: T30, BaL-gp120-K487AK490A (HIV-1 BaL)
T30 construct: domain: gp120

[31] = target: T31, BaL-gp120-I491A (HIV-1 BaL)
T31 construct: domain: gp120

[32] = target: T32, BaL-gp120-E492A (HIV-1 BaL)
T32 construct: domain: gp120

[33] = target: T33, BaL-gp120-P493A (HIV-1 BaL)
T33 construct: domain: gp120

[34] = target: T34, BaL-gp120-L494A (HIV-1 BaL)
T34 construct: domain: gp120

[35] = target: T35, BaL-gp120-G495A (HIV-1 BaL)
T35 construct: domain: gp120

[36] = target: T36, BaL-gp120-V496A (HIV-1 BaL)
T36 construct: domain: gp120

[37] = target: T37, BaL-gp120-P498A (HIV-1 BaL)
T37 construct: domain: gp120

[38] = target: T38, BaL-gp120-T499A (HIV-1 BaL)
T38 construct: domain: gp120

[39] = target: T39, BaL-gp120-K500A (HIV-1 BaL)
T39 construct: domain: gp120

[40] = target: T40, BaL-gp120-S158A (HIV-1 BaL)
T40 construct: domain: gp120

[41] = target: T41, BaL-gp120-T162A (HIV-1 BaL)
T41 construct: domain: gp120; glycan mutant

[42] = target: T42, BaL-gp120-S200A (HIV-1 BaL)
T42 construct: domain: gp120; also called 5200A

[43] = target: T43, BaL-gp120-T303A (HIV-1 BaL)
T43 construct: domain: gp120; glycan mutant, V3 region

[44] = target: T44, BaL-gp120-S334A (HIV-1 BaL)
T44 construct: domain: gp120; glycan mutant

B1: N60-B1.1 (antibody, V domains shown)
VH: QLQLQESGPGLVKPSGTLSLTCSVSGGSMNGRNIYWAWIRQTPGKGLEWIGSVDVSDEDAGRTFYKWPIKSRASISADTSKNQFSLKLSSVTVADTGVYYCARETLYYVGNGYYYPLDVFYYNYYMDVWGKGTTVSVSS
VL: not shown
notes: also called bnAb N60-B1.1
- % Binding [1]: 100%
- % Binding [2]: 10%
- % Binding [3]: 103%
- % Binding [4]: 108%
- % Binding [5]: 76%
- % Binding [6]: 132%
- % Binding [7]: 121%
- % Binding [8]: 139%
- % Binding [9]: 114%
- % Binding [10]: 84%
- % Binding [11]: 50%
- % Binding [12]: 78%
- % Binding [13]: 90%
- % Binding [14]: 98%
- % Binding [15]: 76%
- % Binding [16]: 103%
- % Binding [17]: 92%
- % Binding [18]: 92%
- % Binding [19]: 80%
- % Binding [20]: 68%
- % Binding [21]: 104%
- % Binding [22]: 102%
- % Binding [23]: 108%
- % Binding [24]: 88%
- % Binding [25]: 36%
- % Binding [26]: 99%
- % Binding [27]: 22%
- % Binding [28]: 73%
- % Binding [29]: 57%
- % Binding [30]: 31%
- % Binding [31]: 85%
- % Binding [32]: 113%
- % Binding [33]: 92%
- % Binding [34]: 99%
- % Binding [35]: 106%
- % Binding [36]: 107%
- % Binding [37]: 101%
- % Binding [38]: 102%
- % Binding [39]: 94%
- % Binding [40]: 3%
- % Binding [41]: 100%
- % Binding [42]: 22%
- % Binding [43]: 2%
- % Binding [44]: 91%
